{"source": "paper PMC3058899", "about": "(Nature, 2010)", "molecules": {"B1": {"name": "tryptophan decarboxylase (C. roseus) (Catharanthus roseus) (protein)", "chain": "MGSIDSTNVAMSNSPVGEFKPLEAEEFRKQAHRMVDFIADYYKNVETYPVLSEVEPGYLRKRIPETAPYLPEPLDDIMKDIQKDIIPGMTNWMSPNFYAFFPATVSSAAFLGEMLSTALNSVGFTWVSSPAATELEMIVMDWLAQILKLPKSFMFSGTGGGVIQNTTSESILCTIIAARERALEKLGPDSIGKLVCYGSDQTHTMFPKTCKLAGIYPNNIRLIPTTVETDFGISPQVLRKMVEDDVAAGYVPLFLCATLGTTSTTATDPVDSLSEIANEFGIWIHVDAAYAGSACICPEFRHYLDGIERVDSLSLSPHKWLLAYLDCTCLWVKQPHLLLRALTTNPEYLKNKQSDLDKVVDFKNWQIATGRKFRSLKLWLILRSYGVVNLQSHIRSDVAMGKMFEEWVRSDSRFEIVVPRNFSLVCFRLKPDVSSLHVEEVNKKLLDMLNSTGRVYMTHTIVGGIYMLRLAVGSSLTEEHHVRRVWDLIQKLTDDLLKEA"}}, "key": {"PyrH": {"molecular_target": "PyrH (Streptomyces rugosporus, UniProt A4D0H5)", "sequence (A4D0H5 whole entry)": "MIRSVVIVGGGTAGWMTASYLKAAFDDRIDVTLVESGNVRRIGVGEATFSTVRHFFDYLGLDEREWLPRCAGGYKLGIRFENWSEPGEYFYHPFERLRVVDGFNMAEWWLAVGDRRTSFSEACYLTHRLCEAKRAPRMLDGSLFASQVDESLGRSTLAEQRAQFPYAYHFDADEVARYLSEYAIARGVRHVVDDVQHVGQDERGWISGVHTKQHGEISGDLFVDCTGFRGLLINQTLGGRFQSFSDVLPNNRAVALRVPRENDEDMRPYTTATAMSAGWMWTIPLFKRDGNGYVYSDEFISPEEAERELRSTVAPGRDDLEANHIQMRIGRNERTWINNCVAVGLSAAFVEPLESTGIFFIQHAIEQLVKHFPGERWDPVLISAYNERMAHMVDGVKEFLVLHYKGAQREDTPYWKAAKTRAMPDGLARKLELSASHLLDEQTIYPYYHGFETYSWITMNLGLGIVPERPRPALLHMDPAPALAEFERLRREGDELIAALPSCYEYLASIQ", "experiment": "LC-MS of 5-chlorotryptophan in transformed C. roseus hairy roots", "assay_type": "cell-based", "conditions": "with RebF reductase, chloride; in planta"}, "RebH": {"molecular_target": "T1, RebH (Lentzea aerocolonigenes, UniProt Q8KHZ8)", "T1 sequence (Q8KHZ8 1-530)": "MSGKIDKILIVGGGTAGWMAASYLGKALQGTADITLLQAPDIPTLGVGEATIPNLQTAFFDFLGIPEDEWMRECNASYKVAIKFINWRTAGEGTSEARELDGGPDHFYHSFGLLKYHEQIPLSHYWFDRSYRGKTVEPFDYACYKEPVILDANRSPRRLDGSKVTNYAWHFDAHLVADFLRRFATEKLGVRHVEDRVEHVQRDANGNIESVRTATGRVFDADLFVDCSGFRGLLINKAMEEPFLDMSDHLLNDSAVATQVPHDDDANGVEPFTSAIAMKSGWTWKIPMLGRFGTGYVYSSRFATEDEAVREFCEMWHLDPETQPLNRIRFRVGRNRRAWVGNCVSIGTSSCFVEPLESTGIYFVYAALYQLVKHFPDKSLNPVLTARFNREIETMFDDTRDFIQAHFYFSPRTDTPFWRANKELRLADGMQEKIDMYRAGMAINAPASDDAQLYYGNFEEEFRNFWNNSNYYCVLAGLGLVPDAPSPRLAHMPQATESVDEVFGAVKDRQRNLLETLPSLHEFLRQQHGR", "experiment": "LC-MS of 7-chlorotryptophan in transformed C. roseus hairy roots", "assay_type": "cell-based", "conditions": "with RebF reductase, chloride; in planta"}, "[1]": {"substrate": "N[C@@H](Cc1c[nH]c2c(Cl)cccc12)C(=O)O", "experiment": "in vitro steady-state kinetics of decarboxylation", "assay_type": "biochemical, Catharanthus roseus"}, "[2]": {"substrate": "N[C@@H](Cc1c[nH]c2ccc(Cl)cc12)C(=O)O", "experiment": "in vitro steady-state kinetics of decarboxylation", "assay_type": "biochemical, Catharanthus roseus"}, "[3]": {"substrate": "N[C@@H](Cc1c[nH]c2ccccc12)C(=O)O", "experiment": "in vitro steady-state kinetics of decarboxylation", "assay_type": "biochemical, Catharanthus roseus"}}}
{"molecule": "N[C@@H](Cc1c[nH]c2ccccc12)C(=O)O", "note": "[compound 1, tryptophan]", "values": [{"measurement": "LC-MS of 5-chlorotryptophan in transformed C. roseus hairy roots", "setting": "PyrH", "value": "we observed accumulation of 5-chlorotryptophan 1b"}, {"measurement": "LC-MS of 7-chlorotryptophan in transformed C. roseus hairy roots", "setting": "RebH", "value": "formation of chlorinated tryptophan 1a and 1b and chlorinated alkaloids in both the RebH/RebF"}]}
{"molecule": "B1", "values": [{"measurement": "Km", "setting": "[1]", "value": "499 ± 74", "unit": "µM"}, {"measurement": "kcat", "setting": "[1]", "value": "0.0267 ± 0.00067", "unit": "s⁻¹"}, {"measurement": "Km", "setting": "[2]", "value": "538 ± 48", "unit": "µM"}, {"measurement": "kcat", "setting": "[2]", "value": "0.0417 ± 0.0013", "unit": "s⁻¹"}, {"measurement": "Km", "setting": "[3]", "value": "51.7 ± 9.2", "unit": "µM"}, {"measurement": "kcat", "setting": "[3]", "value": "0.085 ± 0.0017", "unit": "s⁻¹"}]}
